According to US20240383982A1 (Genmab, published 2024):

T1: dog (Canis familiaris) B7H4, full length, on HEK-293F cells (dog, UniProt Q7Z7D3 25-282 (human entry))
T1 construct: Uniprot F1P8R9; also called dog B7H4
T1 chain: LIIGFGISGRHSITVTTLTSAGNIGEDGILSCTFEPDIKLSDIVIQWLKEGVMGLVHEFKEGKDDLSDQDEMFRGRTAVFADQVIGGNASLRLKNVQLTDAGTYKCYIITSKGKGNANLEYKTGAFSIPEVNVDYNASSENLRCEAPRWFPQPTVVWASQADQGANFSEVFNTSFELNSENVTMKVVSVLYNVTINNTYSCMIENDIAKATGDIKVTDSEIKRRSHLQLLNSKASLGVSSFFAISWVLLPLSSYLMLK

T2: rabbit (Oryctolagus cuniculus) B7H4, full length, on HEK-293F cells (rabbit, UniProt Q7Z7D3 25-282 (human entry))
T2 construct: Uniprot G1TQE8; also called rabbit B7H4
T2 chain: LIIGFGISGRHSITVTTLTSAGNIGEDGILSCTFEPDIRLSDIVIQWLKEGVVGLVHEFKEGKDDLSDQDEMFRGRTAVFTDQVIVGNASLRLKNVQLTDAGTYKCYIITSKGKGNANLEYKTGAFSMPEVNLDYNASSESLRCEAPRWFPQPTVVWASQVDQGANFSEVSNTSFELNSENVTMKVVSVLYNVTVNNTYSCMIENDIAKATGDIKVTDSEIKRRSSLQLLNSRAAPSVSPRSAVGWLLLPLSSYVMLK

T3: human B7H4, full length, on cells (human, UniProt Q7Z7D3 25-282)
T3 construct: Uniprot Q7Z7D3; Used for transfected HEK cells and for the B7H4-expressing human tumor cell lines (endogenous B7H4); also called VTCN1
T3 sequence: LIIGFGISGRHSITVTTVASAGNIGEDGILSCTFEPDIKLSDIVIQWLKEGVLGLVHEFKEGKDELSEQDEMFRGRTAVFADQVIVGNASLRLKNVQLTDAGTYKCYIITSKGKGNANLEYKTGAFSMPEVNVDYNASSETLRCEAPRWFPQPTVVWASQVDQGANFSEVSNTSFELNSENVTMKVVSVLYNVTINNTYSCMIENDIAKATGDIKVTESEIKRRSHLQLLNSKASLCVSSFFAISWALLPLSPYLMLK

T4: B7H3-IgV/B7H4-IgC
T4 construct: also called chimeric molecule with the IgV domain of B7H3 and the IgC domain of B7H4
T4 full-length chimeric protein on cells: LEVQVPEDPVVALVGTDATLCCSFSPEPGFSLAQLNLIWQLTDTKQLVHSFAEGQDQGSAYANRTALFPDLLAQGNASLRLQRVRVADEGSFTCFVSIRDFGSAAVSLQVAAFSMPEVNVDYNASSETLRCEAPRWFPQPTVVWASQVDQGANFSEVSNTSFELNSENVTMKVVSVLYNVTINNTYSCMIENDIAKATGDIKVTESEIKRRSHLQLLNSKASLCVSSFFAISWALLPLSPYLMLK


Key:
[1] = target: T1, dog (Canis familiaris) B7H4, full …; test: flow cytometry, transiently transfected HEK-293F cells
[2] = target: T2, rabbit (Oryctolagus cuniculus) B7H4, …; test: as above
[3] = target: T3, human B7H4, full length, on cells; test: flow cytometry on SK-BR3 tumor cells [panel SK-BR3 cells]
Protocol: (§1) Cells (3×10⁴ cells/well) were incubated in polystyrene 96-well round-bottom plates (Greiner bio-one, cat. no. 650180) with serial dilutions of antibodies (ranging from 0.000458 to 30 μg/mL in 4-fold dilution steps) in 100 μL PBS/0.1% BSA/0.02% azide (staining buffer) at 4° C. for 30 min. Experiments were performed in technical duplicate. After washing twice in staining buffer, cells were incubated in 50 μL secondary antibody at 4° C. for 30 min. As a secondary antibody, R-Phycoerythrin (PE)-conjugated goat-anti-human IgG F(ab′)₂ (1:500 in FACS buffer; Jackson ImmunoResearch Laboratories, Inc., West Grove, PA, cat. no. 109-116-098), was used. Cells were washed twice in staining buffer, re-suspended in 30 μL FACS buffer containing Topro-3 (1:10,000 dilution) and analyzed on an iQue Screener (Intellicyt Corporation, USA). Binding curves were analyzed using non-linear regression (sigmoidal dose-response with variable slope) using GraphPad Prism V7.02 software (GraphPad Software, San Diego, CA, USA).
(§2) Binding was analyzed by flow cytometry as described above.

[4] = target: T3, human B7H4, full length, on cells; test: flow cytometry on HCC1954 tumor cells [panel HCC1954 cells]
Protocol: as §1, §2

[5] = target: T3, human B7H4, full length, on cells; test: flow cytometry on HCC1954 tumor cells [HCC1954 right panel]
Protocol: as §1, §2

[6] = target: T4, B7H3-IgV/B7H4-IgC; test: flow cytometry, HEK cells transiently transfected with B7H3-IgV/B7H4-IgC, PE anti-human IgG F(ab')2 [panel B7H3-IgV/B7H4-IgC]

binding result [1] | binding result [2] | Binder | EC50 (read off the curve) [3] [µg/mL] | EC50 (read off the curve) [4] [µg/mL] | EC50 (read off the curve) [5] [µg/mL] | binding result [6]
binds | binds | IgG1-B7H4-C5-FEAR (antibody, V domains shown, Full length IgG1 FEAR, kappa; variable domains from US20190085080A1) VH: QLQLQESGPGLVKPSETLSLTCTVSGGSIKSGSYYWGWIRQPPGKGLEWIGNIYYSGSTYYNPSLRSRVTISVDTSKNQFSLKLSSVTAADTAVYYCAREGSYPNQFDPWGQGTLVTVSS VL: EIVMTQSPATLSVSPGERATLSCRASQSVSSNLAWYQQKPGQAPRLLIYGASTRATGIPARFSGSGSGTEFTLTISSLQSEDFAVYYCQQYHSFPFTFGGGTKVEIKR | – | – | – | –
– | – | bsIgG1-huCD3-H101G-FEALxB7H4-C1-N52S-FEAR (bispecific antibody, also called bslgG1-huCD3-H101G-FEALxB7H4-C1-N52S-FEAR; BslgG1-huCD3-H101G-FEALxB7H4-C1-N52S-FEAR) heavy 1: not shown light 1: not shown heavy 2: QVQLQQWGAGLLKPSETLSLTCAVYGGSFSGYYWSWIRQPPGKGLEWIGEISHSGSTNYNPSLKSRVTISIDTSKNQFSLKLTSVTAADTAVFYCARGLFNWNFDSWGQGTLVTVSSASTKGPSVFPLAPSSKSTSGGTAALGCLVKDYFPEPVTVSWNSGALTSGVHTFPAVLQSSGLYSLSSVVTVPSSSLGTQTYICNVNHKPSNTKVDKRVEPKSCDKTHTCPPCPAPEFEGGPSVFLFPPKPKDTLMISRTPEVTCVVVAVSHEDPEVKFNWYVDGVEVHNAKTKPREEQYNSTYRVVSVLTVLHQDWLNGKEYKCKVSNKALPAPIEKTISKAKGQPREPQVYTLPPSREEMTKNQVSLTCLVKGFYPSDIAVEWESNGQPENNYKTTPPVLDSDGSFFLYSRLTVDKSRWQQGNVFSCSVMHEALHNHYTQKSLSLSPGK light 2: DIQMTQSPSSLSASVGDRVTITCRASQGIRNDLGWYQQKPGKAPKRLIYGASSLQSGVPSRFSGSGSGTEFTLTISSLQPEDFATYYCLQHNSYPRTFGQGTTVEIKRTVAAPSVFIFPPSDEQLKSGTASVVCLLNNFYPREAKVQWKVDNALQSGNSQESVTEQDSKDSTYSLSSTLTLSKADYEKHKVYACEVTHQGLSSPVTKSFNRGEC | ~1 | ~3 | ~1 | binds
